The labels stand for the following.
B1: Mb(BgaD_L02) (designed binder)
chain: VSSVPTKLEVVAATPTSLLISWDANGWNYVKYYRITYGETGGNSPVQEFTVPGSSSTATISGLKPGVDYTITVYAYEYYSESSSSPISINYRT
B2: Mb(BgaD_S09) (designed binder)
chain: VSSVPTKLEVVAATPTSLLISWDAPAVTVVYYVITYGETGGNSPVQEFTVPGSKSTATISGLKPGVDYTITVYAYSDQVEYYEYFYGSPISINYRT
B3: Mb(BgaD_S10) (designed binder)
chain: VSSVPTKLEVVAATPTSLLISWDAPAVTVVFYLITYGETGASSWPGYQEFTVPGSKSTATISGLKPGVDYTITVYAQYPWDTGSPISINYRT
B4: Mb(BgaD_L23) (designed binder)
chain: VSSVPTKLEVVAATPTSLLISWDAFDGYWYDYVSFYRITYGESGGNSPVQEFTVPSSSSTATISGLKPGVDYTITVYAYSHSQQQYLSPNSINYRT
B5: Mb(BgaD_L19) (designed binder)
chain: B4 chain with F35Y, S43T, N90I
B6: Mb(CRL_L24) (designed binder)
chain: VSSVPTKLEVVAATPTSLLISWDASSSSVSYYRITYGETGGNSPVQEFTVPGSSSTATISGLKPGVDYTITVYAFGHYYGSWVWSPISINYRT
notes: also called Mb(L24)
B7: Mb(CRL_L23) (designed binder)
chain: B6 chain with V83A
notes: Mb(L23) and Mb(L24) differ by one residue and could be 116/117 in either order; also called Mb(L23)
B8: Mb(CRL_L18) (designed binder)
chain: VSSVPTKLEVVAATPTSLLISWDAMQYSEYDVTYYRITYGETGGNSPVQEFTVPGSSSTATISGLKPGVDYTITVYAVWQYMHYMHSYSPISINYRT
notes: 109 is Mb(S19)); also called Mb(L18)
B9: Mb(BgaD_L14) (designed binder)
chain: VSSVPTKLEVVAATPTSLLISWDASSYYGVVSYYRITYGETGGNSPVQEFTVPGYSSTATISGLKPGVDYTITVYASYYYWYTSYTKSPISINYRT
B10: Mb(BgaD_S13) (designed binder)
chain: VSSVPTKLEVVAATPTSLLISWDAPAVTVVFYVITYGETGVHWPGYQKFTVPGSKSTATISGLKPGVDYTITVYAQFPWYMGSPISINYRT
B11: Mb(BgaD_S11) (designed binder)
chain: VSSVPTKLEVVAATPTSLLISWDAPAVTVVLYVITYGETGPGHSAWPQAFTVPGSKSTATISGLKPGVDYTITVYAYWDWDSHRYSPISINYRT
B12: Mb(BgaD_S12) (designed binder)
chain: B3 chain with L33I, S42A, S43V, Y47H, Q77V, Y78G, T82Y, G83Y
B13: Mb(BgaD_S06) (designed binder)
chain: B3 chain with L33V, S42A, S43V, Y47H, Y78G, P79G, W80R, D81W, T82K, G83S
B14: Mb(BgaD_S08) (designed binder)
chain: VSSVPTKLEVVAATPTSLLISWDAPAVTVDLYVITYGETGGSSWPQAFTVPGSKSTATISGLKPGVDYTITVYAHSWDHSYSPISINYRT
B15: Mb(BgaD_S07) (designed binder)
chain: VSSVPTKLEVVAATPTSLLISWDAPAVTVDLYLITYGETGFSYGFPQAFTVPGSKSTATISGLKPGVDYTITVYASTVDGHSSPISINYRT
B16: Mb(BgaD_L18) (designed binder)
chain: VSSVPTKLEVVAATPTSLLISWDAESWYWPYYVSYYRITYGETGGNSPVQEFTVPSSSSTATISGLKPGVDYTITVYAFEHHEQRYYSPISINYRT
B17: Mb(BgaD_L01) (designed binder)
chain: VSSVPTKLEVVAATPTSLLISWDAMDHTPYVYYYRITYGETGGNSPVQEFTVPGYYSTATISGLKPGVDYTITVYAGDLSWNFDFYSPISINYRT
B18: Mb(BgaD_L24) (designed binder)
chain: B4 chain with T14A, S17T, F35Y, S43T, T62I, S80H, N90I
B19: Mb(BgaD_L22) (designed binder)
chain: B4 chain with F35Y, S43T, E51V, Q84L, N90I
B20: Mb(BgaD_L05) (designed binder)
chain: VSSVPTKLEVVAATPTSLLISWDAYKSLGGVDYYRITYGETGGNSPVQEFTVPGSSSTATISGLKPGVDYTITVYAGYLWYPYGEWSPISINYRT
B21: Mb(BgaD_L03) (designed binder)
chain: VSSVPTKLEVVAATPTSLLISWDAGDYWVYYYRITYGETGGNSPVQEFTVPGYSSTATISGLKPGVDYTITVYAGDLSFNTYYYSPISINYRT
B22: Mb(BgaD_L04) (designed binder)
chain: VSSVPTKLEVVAATPTSLLISWDAYEHWSGVYYYRITYGETGGNSPVQEFTVPGSSSTATISGLKPGVDYTITVYAYSYSYASMYSPISINYRT
B23: 1Mb39 S (designed binder)
chain: VSSVPTKLEVVAATPTSLLISWDAPAVTVDFYLITYGETGGPSWPQAFAVPGSKSTATISGLKPGVDYTITVYASSSSRISSSSSKPISINYRT

Changes are numbered by the printed parent chain.

One test deals with BgaD-D active site mutant E447Q (Bacillus circulans ATCC 31382). The test is described as follows: bead assay, purified proteins, target given as BgaD-D/EQ, titrated 0-1000 nM shown, 1:1 fit [panel a].
In general, Kd refers to the constant that tells how readily two partners part at equilibrium. Low readings indicate higher affinity, high ones lower affinity. With B1, the Kd is 12 nM.
The same measure, in the same setting: next, B2: 239 nM; B3: 16 nM.
The same measure, in the same setting: next, B4: 46 nM.
Still for that read-out and setting: next, B5: 72 nM.

For a further test, the target named is BgaD-D active site mutant E447R (Bacillus circulans ATCC 31382). Put plainly: bead assay, purified proteins, target given as BgaD-D/ER, titrated 0-1000 nM shown, 1:1 fit [panel a].
B1 displayed a Kd of 11 nM.
On the same count and under the same terms, next, B2: 157 nM; B3: 16 nM; B4: 227 nM.
The molecule B5 had an equilibrium dissociation constant (Kd) of 224 nM.

For the next test, the target named is T1, Candida rugosa lipase 1 (CRL1) (Candida rugosa, UniProt P20261 16-549, biotinylated with NHS-LC-biotin, about 2 biotin per CRL1 molecule (binding assays)).
T1 construct: Bought purified protein
The test is described as follows: yeast-surface display of the monobody, CRL1 titrated, flow cytometry, 1:1 fit [panel a]. The method, then: Affinity of monobodies to CRL1 was determined using yeast-surface display, as described previously. Yeast cells displaying a monobody were incubated with varying concentrations of CRL1, washed with the buffer and stained with appropriate fluorescently labeled secondary detection reagents, prior to analysis on a flow cytometer (Guava EasyCyte 6/L, Millipore). KD values were determined from plots of the mean fluorescent intensity against CRL1 concentration by fitting the 1:1 binding model using SigmaPlot software (Systat Software).
In turn, B6 displayed a dissociation constant (Kd) of 9.3 nM.
Same read-out and setting: next, B7: 11 nM; B8: 54 nM.

The next test addresses BgaD-D, smallest isozyme of the β-galactosidase from B. circulans ATCC 31382 (Biolacta) (Bacillus circulans ATCC 31382). Put plainly: Kd table; yeast-surface display (paragraph 202 repeats it as 600±170 nM).
Consider B5, for which the Kd stood at 598 nM.

The target of another test is BgaD-D active site mutant E447K (Bacillus circulans ATCC 31382). The test is described as follows: bead assay, purified proteins, target given as BgaD-D/EK, titrated 0-1000 nM shown, 1:1 fit [panel a].
B1 displayed a Kd of 11 nM.
The same measure, in the same setting: the result for B2 reads 178 nM; that for B3, 12 nM; that for B4, 156 nM.
On the same count and under the same terms, the result for B5 reads 173 nM.

A further test concerns the target BgaD-D, smallest isozyme of the β-galactosidase from B. circulans ATCC 31382 (Biolacta) (Bacillus circulans ATCC 31382). The test is described as follows: bead assay, purified proteins: biotinylated monobody on streptavidin-coated beads, BgaD-D titrated (0-1000 nM shown), flow cytometry, 1:1 fit [panel b]. (In flow cytometry, cells or beads pass a laser one at a time.)
B1 registered an equilibrium dissociation constant (Kd) of 9.9 nM.
Same read-out and setting: next, B2: 171 nM.
On the same count and under the same terms, the result for B3 reads 13 nM; that for B4, 25 nM; that for B5, 37 nM.

For a further test the target is unchanged. Put plainly: KD (nM) to BgaD-D; assay not given; the values equal those of the bead assay with purified proteins in FIG. 3B [panel c].
As for B1, the equilibrium dissociation constant (Kd) is 9.9 nM.
On the same count and under the same terms, the result for B2 reads 171 nM.
On the same count and under the same terms, the result for B3 reads 13 nM.
The same measure, in the same setting: the result for B4 reads 25 nM.

For a further test the target is unchanged. Put plainly: bead assay with purified proteins, biotinylated monobody on streptavidin beads (FIG. 3B).
Regarding B9, the Kd was 31 nM.

The target of a further test is T1, Candida rugosa lipase 1 (CRL1). The test is described as follows: cell-based or functional assay.
B8: the “CRL1 activity toward C8 triacylglyceride (fold reduction relative to CRL1 alone)” value is 11 fold, the “CRL1 activity toward C10 triacylglyceride (fold reduction relative to CRL1 alone)” value came to 102 fold and the “CRL1 activity toward C12 triacylglyceride (fold reduction relative to CRL1 alone)” value turned out to be 4.5 fold.

A further test deals with BgaD-D, smallest isozyme of the β-galactosidase from B. circulans ATCC 31382 (Biolacta) (Bacillus circulans ATCC 31382). The test is described as follows: Kd table; method not given.
B9 came in with a Kd of 37 nM.
With B10, the Kd was 50 nM.
Same read-out and setting: next, B1: 5.7 nM.
On the same count and under the same terms, next, B11: 246 nM; B2: 184 nM; B3: 15 nM.
The same measure, in the same setting: next, B12: 18 nM; B13: 24 nM.
For the molecule B14, the dissociation constant (Kd) is 214 nM.
Take B15: the dissociation constant Kd came to 488 nM.
Same read-out and setting: next, B16: 147 nM; B17: 163 nM; B18: 11 nM.
For B19, the Kd was 33 nM.
The same measure, in the same setting: the result for B20 reads 515 nM; that for B21, 76 nM; that for B22, 137 nM.
Consider B23, for which the dissociation constant Kd was found to be 476 nM.

The next test has the same target. Put plainly: cell-based or functional assay.
For B4, the production of DP4 by BgaD-D (fold reduction) was 4.5 fold and the production of DP5+ by BgaD-D (fold reduction) turned out to be 30 fold.

The target is the same in another test. Put plainly: Kd table; yeast-surface display (paragraph 202 repeats it as 12±3 nM).
As for B4, the Kd came out at 12 nM.

Another test shares this target. The test is described as follows: bead assay, purified proteins, target given as BgaD-D/WT, titrated 0-1000 nM shown, 1:1 fit [panel a].
The molecule B1 displayed an equilibrium dissociation constant (Kd) of 9.9 nM.
Same read-out and setting: next, B2: 171 nM; B3: 13 nM.
The same measure, in the same setting: the result for B4 reads 25 nM; that for B5, 37 nM.

(Values after US20180208678A1 (UNIVERSITY OF CHICAGO, published 2018).)
